The results in this text go back to the supplement of paper PMC12458215.

± gives the uncertainty stated by the source.

This data set relates to HEK293T. The experiment in a line: plasma membrane surface immunostaining intensity (anti-HA, deep receptor scanning) (arbitrary fluorescence units); higher = higher plasma membrane expression.

Regarding “MEKANETSPVMGFVLLRLSAHPELEKTFFVLILLMYLVILLGNGVLILVTILDSRLHTPMYFFLGNLSFLDICFTTSSVPLVLDSFLTPQETISFSACAVQMALSFAMAGTECLLLSMMAFDRYVAICNPLRYSVIMSKAAYMPMAASSWAIGGAASVVHTSLAIQLPFCGDNVINHFTCEILAVLKLACADISINVISMEVTNVIFLGVPVLFISFSYVFIITTILRIPSAEGRKKVFSTCSAHLTVVIVFYGTLFFMYGKPKSKDSMGADKEDLSDKLIPLFYGVVTPMLNPIIYSLRNKDVKAAVRRLLRPKGFTQ [OR2S2]”, the “plasma membrane surface immunostaining intensity” value (GPCR class: A (Olfactory)) was determined as 120 ± 24. Consider “MEKLLRLCCWYSWLLLFYYNFQVRGVYSRSQDHPGFQVLASASHYWPLENVDGIHELQDTTGDIVEGKVNKGIYLKEEKGVTLLYYGRYNSSCISKPEQCGPEGVTFSFFWKTQGEQSRPIPSAYGGQVISNGFKVCSSGGRGSVELYTRDNSMTWEASFSPPGPYWTHVLFTWKSKEGLKVYVNGTLSTSDPSGKVSRDYGESNVNLVIGSEQDQAKCYENGAFDEFIIWERALTPDEIAMYFTAAIGKHALLSSTLPSLFMTSTASPVMPTDAYHPIITNLTEERKTFQSPGVILSYLQNVSLSLPSKSLSEQTALNLTKTFLKAVGEILLLPGWIALSEDSAVVLSLIDTIDTVMGHVSSNLHGSTPQVTVEGSSAMAEFSVAKILPKTVNSSHYRFPAHGQSFIQIPHEAFHRHAWSTVVGLLYHSMHYYLNNIWPAHTKIAEAMHHQDCLLFATSHLISLEVSPPPTLSQNLSGSPLITVHLKHRLTRKQHSEATNSSNRVFVYCAFLDFSSGEGVWSNHGCALTRGNLTYSVCRCTHLTNFAILMQVVPLELARGHQVALSSISYVGCSLSVLCLVATLVTFAVLSSVSTIRNQRYHIHANLSFAVLVAQVLLLISFRLEPGTTPCQVMAVLLHYFFLSAFAWMLVEGLHLYSMVIKVFGSEDSKHRYYYGMGWGFPLLICIISLSFAMDSYGTSNNCWLSLASGAIWAFVAPALFVIVVNIGILIAVTRVISQISADNYKIHGDPSAFKLTAKAVAVLLPILGTSWVFGVLAVNGCAVVFQYMFATLNSLQGLFIFLFHCLLNSEVRAAFKHKTKVWSLTSSSARTSNAKPFHSDLMNGTRPGMASTKLSPWDKSSHSAHRVDLSAV [ADGRD1]”, for which the “plasma membrane surface immunostaining intensity” value (GPCR class: B) is 1550 ± 390. Regarding “MEKWNHTSNDFILLGLLPPNQTGIFLLCLIILIFFLASVGNSAMIHLIHVDPRLHTPMYFLLSQLSLMDLMYISTTVPKMAYNFLSGQKGISFLGCGVQSFFFLTMACSEGLLLTSMAYDRYLAICHSLYYPIRMSKMMCVKMIGGSWTLGSINSLAHTVFALHIPYCRSRAIDHFFCDVPAMLLLACTDTWVYEYMVFVSTSLFLLFPFIGITSSCGRVLFAVYHMHSKEGRKKAFTTISTHLTVVIFYYAPFVYTYLRPRNLRSPAEDKILAVFYTILTPMLNPIIYSLRNKEVLGAMRRVFGIFSFLKE [OR2L13]”, the “plasma membrane surface immunostaining intensity” value (GPCR class: A (Olfactory)) was determined as 139 ± 4.1. Regarding “MELAVGNLSEGNASWPEPPAPEPGPLFGIGVENFVTLVVFGLIFALGVLGNSLVITVLARSKPGKPRSTTNLFILNLSIADLAYLLFCIPFQATVYALPTWVLGAFICKFIHYFFTVSMLVSIFTLAAMSVDRYVAIVHSRRSSSLRVSRNALLGVGCIWALSIAMASPVAYHQGLFHPRASNQTFCWEQWPDPRHKKAYVVCTFVFGYLLPLLLICFCYAKVLNHLHKKLKNMSKKSEASKKKTAQTVLVVVVVFGISWLPHHIIHLWAEFGVFPLTPASFLFRITAHCLAYSNSSVNPIIYAFLSENFRKAYKQVFKCHIRKDSHLSDTKESKSRIDTPPSTNCTHV [GALR1]”, the “plasma membrane surface immunostaining intensity” value (GPCR class: A) is 6490 ± 69. The same measure, in the same setting: the result for “MELLKLNRSVQGTGPGPGASLCRPGAPLLNSSSVGNLSCEPPRIRGAGTRELELAIRITLYAVIFLMSVGGNMLIIVVLGLSRRLRTVTNAFLLSLAVSDLLLAVACMPFTLLPNLMGTFIFGTVICKAVSYLMGVSVSVSTLSLVAIALERYSAICRPLQARVWQTRSHAARVIVATWLLSGLLMVPYPVYTVVQPVGPRVLQCVHRWPSARVRQTWSVLLLLLLFFIPGVVMAVAYGLISRELYLGLRFDGDSDSDSQSRVRNQGGLPGAVHQNGRCRPETGAVGEDSDGCYVQLPRSRPALELTALTAPGPGSGSRPTQAKLLAKKRVVRMLLVIVVLFFLCWLPVYSANTWRAFDGPGAHRALSGAPISFIHLLSYASACVNPLVYCFMHRRFRQACLETCARCCPRPPRARPRALPDEDPPTPSIASLSRLSYTTISTLGPG [CCKBR]” reads 2920 ± 830.
